Data as given in patent US20130237472A1.

Key:
TNF-α [1] = test: competition ELISA against plate-bound TNFRI190; relative affinity from IC50
TNF-α [2] = test: cell-based or functional assay

Row | Substance | Result Affinity (%) relative to wild-type TNFRI126 (TNF-α [1]) [%] | Relative activity (cell based assay) (Folds) (TNF-α [2]) [fold]
1 | Met-TNFRI126 (from UniProt P19438 41-166) (receptor) | 100 | 
2 | Met-TNFRI171 (from UniProt P19438 41-211) (receptor) |  | 1
